For assay [1], the target named is T1, sortilin protein with a C-terminal 6×His-tag (Homo sapiens (Human), UniProt Q99523 78-755, directly conjugated with d2 in assay format #3 (site not stated); unlabeled and detected with d2-labeled 1C12 in assay format #10).
T1 construct: Soluble sortilin of the HTRF assays; also called sortilin-d2; Tb-conjugated sortilin protein
T1 sequence: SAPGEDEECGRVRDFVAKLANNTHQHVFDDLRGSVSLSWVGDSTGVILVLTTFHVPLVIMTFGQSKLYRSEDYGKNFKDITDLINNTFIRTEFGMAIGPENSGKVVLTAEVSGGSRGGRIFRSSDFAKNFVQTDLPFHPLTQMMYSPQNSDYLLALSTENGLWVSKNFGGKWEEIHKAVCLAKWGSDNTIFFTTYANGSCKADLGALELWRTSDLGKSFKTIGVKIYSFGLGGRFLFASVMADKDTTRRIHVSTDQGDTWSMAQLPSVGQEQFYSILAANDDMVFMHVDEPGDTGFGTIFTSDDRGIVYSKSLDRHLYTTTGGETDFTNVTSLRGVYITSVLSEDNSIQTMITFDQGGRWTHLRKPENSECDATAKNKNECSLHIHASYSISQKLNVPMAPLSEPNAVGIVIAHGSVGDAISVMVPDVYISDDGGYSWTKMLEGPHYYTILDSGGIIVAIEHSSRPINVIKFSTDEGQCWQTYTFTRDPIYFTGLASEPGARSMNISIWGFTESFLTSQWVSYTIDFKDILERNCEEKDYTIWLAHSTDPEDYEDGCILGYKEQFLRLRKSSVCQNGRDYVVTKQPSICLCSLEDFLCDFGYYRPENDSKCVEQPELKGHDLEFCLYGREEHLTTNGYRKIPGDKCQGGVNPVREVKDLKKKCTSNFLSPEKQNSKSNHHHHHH
Briefly: HTRF, assay format #10: sortilin at 9 nM, anti-sortilin 1C12 at 20 ng/well, SA-Tb at 0.33 nM; assay format #10: sortilin detected with anti-sortilin 1C12 antibody, SA-Tb. The source says:
(§1) Assay #3 uses directly d2 conjugated sortilin and SA-Tb to detect the peptide. […] Assay #10 uses anti-sortilin 1C12 antibody to detect sortilin and SA-Tb to detect the peptide.
On the technique in general: Time-resolved FRET reads energy transfer from a long-lived donor to a nearby acceptor.

For assay [2], the target named is T1, sortilin protein with a C-terminal …. Briefly: row HotKdNM of the drawn table: Kd of the labelled (biotinylated) peptide for sortilin, held constant in the Ki fit of assay format 10; same value in all three columns.
The target is the same in assay [3]. Put plainly: HTRF, assay format #3: sortilin-d2 at 9 nM, SA-Tb at 0.33 nM; assay format #3: directly d2 conjugated sortilin, SA-Tb.
Text: as §1

The target of assay [4] is T2, human sortilin expressed on cells (human, UniProt Q99523 78-831).
T2 construct: Transiently transfected HEK293T cells; also called Sortilin1; full-length Sortilin
T2 sequence: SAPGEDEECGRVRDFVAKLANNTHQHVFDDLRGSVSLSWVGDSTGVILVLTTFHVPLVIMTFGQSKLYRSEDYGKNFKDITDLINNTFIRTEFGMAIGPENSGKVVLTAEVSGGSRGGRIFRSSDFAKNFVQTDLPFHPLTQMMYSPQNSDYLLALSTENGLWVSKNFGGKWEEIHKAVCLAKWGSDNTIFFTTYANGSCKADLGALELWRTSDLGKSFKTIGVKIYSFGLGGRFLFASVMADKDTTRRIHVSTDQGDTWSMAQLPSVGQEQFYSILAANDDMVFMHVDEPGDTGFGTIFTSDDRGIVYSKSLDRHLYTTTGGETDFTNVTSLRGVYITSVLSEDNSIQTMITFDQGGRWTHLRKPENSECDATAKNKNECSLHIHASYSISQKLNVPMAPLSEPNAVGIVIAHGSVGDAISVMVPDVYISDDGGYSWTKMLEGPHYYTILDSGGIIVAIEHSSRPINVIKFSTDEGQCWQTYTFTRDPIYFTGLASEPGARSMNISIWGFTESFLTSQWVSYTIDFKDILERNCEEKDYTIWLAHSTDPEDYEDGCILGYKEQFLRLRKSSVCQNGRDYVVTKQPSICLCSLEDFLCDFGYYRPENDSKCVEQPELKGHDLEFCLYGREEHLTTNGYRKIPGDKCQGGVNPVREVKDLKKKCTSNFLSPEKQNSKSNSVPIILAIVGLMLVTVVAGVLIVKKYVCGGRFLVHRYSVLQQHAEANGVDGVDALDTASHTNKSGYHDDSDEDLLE
Briefly: flow cytometry on transiently transfected HEK293T cells, on ice, Streptavidin-APC, median fluorescence intensity. On the procedure:
(§2) Cells were then washed and incubated with Streptavidin-APC and analyzed using Fluorescence Activated Cell Sorting (FACS). […] Cells were transiently transfected with human Sortilin or lacZ (control) and GFP using Fugene and harvested after 24 h. GFP was either expressed by a second vector (Topo3.3, Invitrogen) or located on the same vector, separated by an IRES sequence (pCMV6-AC-IRES-GFP, Origene). Full-length Sortilin was used either untagged (Topo3.3) or with a C-terminal myc tag (pCMV6-AC-IRES-GFP). […] After washing cells 3 times in HBSS+1% BSA, cells were incubated in Streptavidin-APC (BD Biosciences, 1:20) on ice for 30 min. Then cells were washed again, resuspended in HBSS+1% BSA and analyzed on a FACSCanto™ flow cytometer (BD Biosciences, Mississauga, ON).
On the technique in general: In flow cytometry, cells or beads pass a laser one at a time.

Assay [5] addresses T2, human sortilin expressed on cells. Briefly: FACS, blocking of PGRN-DyLight650 binding and endocytosis on sortilin-expressing cells.
For assay [6] the target is unchanged. Put plainly: FACS, blocking of biotinylated PGRN binding to sortilin-expressing HEK293T cells. The protocol:
as §2

No end group written: not given here. *: point of attachment. Biotin = O=C1N[C@H]2[C@H](CS[C@H]2CCCCC(=O)*)N1

B1: biotinylated PGRN peptide (peptide)
peptide: Biotin-TKCLRREAPRWDAPLRDPALRQLL
notes: Detected through streptavidin-Tb in formats #3, #6 and #10; also called 24 amino acid-sized C-terminal peptide of PGRN; biotinylated peptide
For orientation: Kd means the constant that tells how readily two partners part at equilibrium. Turning to B1, the figures for the Kd in assay [1], in assay [2] and in assay [3] were 1.6 nM, 1.4 nM and 2 nM, respectively.

B2: biotinylated mouse PGRN (ligand, UniProt P28798 18-589, looked up)
chain: TQCPDGQFCPVACCLDQGGANYSCCNPLLDTWPRITSHHLDGSCQTHGHCPAGYSCLLTVSGTSSCCPFSKGVSCGDGYHCCPQGFHCSADGKSCFQMSDNPLGAVQCPGSQFECPDSATCCIMVDGSWGCCPMPQASCCEDRVHCCPHGASCDLVHTRCVSPTGTHTLLKKFPAQKTNRAVSLPFSVVCPDAKTQCPDDSTCCELPTGKYGCCPMPNAICCSDHLHCCPQDTVCDLIQSKCLSKNYTTDLLTKLPGYPVKEVKCDMEVSCPEGYTCCRLNTGAWGCCPFAKAVCCEDHIHCCPAGFQCHTEKGTCEMGILQVPWMKKVIAPLRLPDPQILKSDTPCDDFTRCPTNNTCCKLNSGDWGCCPIPEAVCCSDNQHCCPQGFTCLAQGYCQKGDTMVAGLEKIPARQTTPLQIGDIGCDQHTSCPVGQTCCPSLKGSWACCQLPHAVCCEDRQHCCPAGYTCNVKARTCEKDVDFIQPPVLLTLGPKVGNVECGEGHFCHDNQTCCKDSAGVWACCPYLKGVCCRDGRHCCPGGFHCSARGTKCLRKKIPRWDMFLRDPVPRPLL
modifications: biotinylated (sites not given)
B2: the binding result in assay [4] is “binds”.

B3: non-biotinylated PGRN peptide (peptide)
peptide: TKCLRREAPRWDAPLRDPALRQLL
notes: also called unlabeled PGRN peptide; C-terminal peptide of PGRN
What is called IC50 is the concentration that gives 50% inhibition. Read a high IC50 as weaker potency. In assay [5], B3 displayed an IC50 of 35 nM.

B4: sortilin pro-domain peptide (peptide, UniProt Q99523 34-77, looked up)
peptide: QDRLDAPPPPAAPLPRWSGPIGVSWGLRAAAAGGAFPRGGRWRR
notes: domain: pro-domain; also called Sortilin1 pro-domain peptide; sortilin pro-peptide
In the case of B4, the IC50 in assay [6] was ~5900 nM; in assay [5], 450 nM.

The values above are taken from patent US10849992B1, “Methods of screening for sortilin binding antagonists” (ALECTOR LLC, priority 2015, dated 2020).
